According to doi:10.1101/2020.07.31.231746 (2020):

Target: WT ACE2(740)-Fc (human, UniProt Q9BYF1 18-740)
Experiment: BLI

B1: HCoV-NL63 spike RBD (domain or fragment)
chain: QHTDINFTATASFGGSCYVCKPHQVNISLNGNTSVCVRTSHFSIRYIYNRVKSGSPGDSSWHIYLKSGTCPFSFSKLNNFQKFKTICFSTVEVPGSCNFPLEATWHYTSYTIVGALYVTWSEGNSITGVPYPVSGI
With B1 the Kd was 22 nM.
